Data on one molecule can be found in US20250296997A1 (Eli Lilly, published 2025).

What is called kon is the rate constant with which the complex forms. As usually defined, the IC50 is the concentration that gives 50% inhibition. What is called Kd is the constant that tells how readily two partners part at equilibrium. For orientation: koff means a measure of how fast the partners let go of each other.

Experiment [1] addresses T1, human IL-34 (human, UniProt Q6ZMJ4 21-242, Biotinylated in the CSF1R displacement ELISA (sites not given); secreted homodimer, one monomer chain given.).
T1 sequence: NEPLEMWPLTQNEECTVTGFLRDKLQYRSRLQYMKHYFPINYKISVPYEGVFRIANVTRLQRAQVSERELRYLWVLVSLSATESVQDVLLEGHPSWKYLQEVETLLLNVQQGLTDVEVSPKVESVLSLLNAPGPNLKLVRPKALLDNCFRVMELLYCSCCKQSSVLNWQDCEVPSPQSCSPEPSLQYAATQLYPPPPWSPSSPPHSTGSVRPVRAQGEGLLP
Briefly: cell-based or functional assay.

Experiment [2] deals with T2, cynomolgus monkey IL-34 (cynomolgus monkey, UniProt G7Q1L3 21-242).
T2 construct: Biotinylated in the CSF1R displacement ELISA; also called cyno IL-34
T2 sequence: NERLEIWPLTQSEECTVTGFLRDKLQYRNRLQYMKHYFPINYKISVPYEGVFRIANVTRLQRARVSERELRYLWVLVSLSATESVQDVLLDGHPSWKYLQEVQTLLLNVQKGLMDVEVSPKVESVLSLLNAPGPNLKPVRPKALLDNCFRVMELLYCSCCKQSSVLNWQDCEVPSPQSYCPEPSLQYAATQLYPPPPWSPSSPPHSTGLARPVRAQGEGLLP
Briefly: SPR, BIAcore 8K, 37 C, antibody captured on Protein A chip, IL-34 flowed; mean of at least three experiments (SD 2.0E+06 in r12c4). How it is done: (§1) Binding affinity of anti-IL-34 monoclonal antibodies of the present disclosure to human and/or cynomolgus monkey (cyno) IL-34 may be determined by methods known in the art. Briefly, the binding affinity and kinetics of the antibody are evaluated by surface plasmon resonance using BIAcore™ 8K (Cytiva) at 37° C. […] For each cycle, 200 μL IL-34 is flowed over the immobilized antibody at 100 μL/minute, and then dissociated for 20 minutes. The chip surface is regenerated with 50 μL of glycine buffer at pH 1.5 at a flow rate of 100 μL/minute. The data are fit to a 1:1 Langmiur binding mode to derive kon, koff and to calculate KD.
A general note: SPR reads the build-up and loss of mass on a sensor chip optically.

Experiment [3] deals with T1, human IL-34. Briefly: competition ELISA: displacement of biotinylated human IL-34 (3.7 nM) from plate-bound hCSF1R_Fc. On the procedure: (§2) CSF1R extracellular domain proteins (hCSFIR_Fc commercially available from R&D Cat #329-MR, cynomolgus CSFIR ECD-Fc (AAA is a linker between CSF1R extracellular domain and Fc) (SEQ ID NO: 53)) can be bound to an ELISA plate at concentrations of 30 nM in order to capture soluble biotinylated IL-34 and allowed to bind for one hour. After washing and blocking plate, biotinylated IL-34 may be added, then detected via streptavidin conjugated peroxidase. Concentrations of labeled IL-34 near the 80% binding level (EC₈₀) (3.7 nM) may be used in conjunction with a range of antibody concentrations (0-100 nM) to determine concentration of antibody required to displace IL-34 from CSF1R. After 1 hr incubation, IL-34 bound to CSFIR is detected via streptavidin conjugated peroxidase. The antibodies are assayed (n=2) and the average and standard deviation at each concentration are calculated. The potency of an antibody to displace IL-34 from CSFIR is reported as IC₅₀ (nM) with the calculated confidence interval (CI) in Table 4 and Table 5.
(In general: An ELISA detects its analyte on a solid surface through an enzyme-linked reagent.)

Experiment [4] deals with T2, cynomolgus monkey IL-34. Kind of experiment: SPR, BIAcore 8K, 37 C, antibody captured on Protein A chip, IL-34 flowed; mean of at least three experiments (SD 16.2 in r12c6). How it is done:
as §1

The target of experiment [5] is T2, cynomolgus monkey IL-34. Briefly: SPR, BIAcore 8K, 37 C, antibody captured on Protein A chip, IL-34 flowed; mean of at least three experiments (SD 5.3E-05 in r12c5). On the procedure:
as §1

In experiment [6] the target is T1, human IL-34. Briefly: SPR, BIAcore 8K, 37 C, antibody captured on Protein A chip, IL-34 flowed; mean of at least three experiments (SD 4.8 in r10c6). On the procedure: as §1
For experiment [7], the target named is T1, human IL-34. Kind of experiment: SPR, BIAcore 8K, 37 C, antibody captured on Protein A chip, IL-34 flowed; mean of at least three experiments (SD 4.4E+05 in r10c4). On the procedure: as §1
Experiment [8] deals with T2, cynomolgus monkey IL-34. Briefly: competition ELISA: displacement of biotinylated cyno IL-34 from plate-bound cynomolgus CSF1R ECD-Fc. On the procedure: as §2
In experiment [9] the target is T1, human IL-34. Kind of experiment: SPR, BIAcore 8K, 37 C, antibody captured on Protein A chip, IL-34 flowed; mean of at least three experiments (SD 2.9E-05 in r10c5). How it is done: as §1

B1: Antibody 1 (antibody, human IgG4 S228P, kappa, F234A L235A, V domains shown)
VH: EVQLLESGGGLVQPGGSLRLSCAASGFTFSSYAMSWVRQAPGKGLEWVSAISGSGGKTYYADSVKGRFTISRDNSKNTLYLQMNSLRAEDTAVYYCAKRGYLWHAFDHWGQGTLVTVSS
VL: EIVLTQSPGTLSLSPGERATLSCRASQSVSSLYLAWYQQKPGQAPRLLIYGASSRATGIPDRFSGSGSGTDFTLTISRLEPEDFAVYYCQVVGSSPPFTFGGGTKVEIKR
notes: Fully human anti-IL-34 IgG4 (IgG4 PAA hinge/Fc, C-terminal lysine deleted), kappa light chain; also called Exemplified Antibody 1; exemplified antibody 1
Take B1: the “IC50 (ug/ml), neutralization of human IL-34 induced luciferase reporter activity in hCSF1R expressing 293 SRE cells” value in the experiment with human IL-34 [1] came out at 0.0458 µg/mL. The results for the kon with cynomolgus monkey IL-34 [2] and with human IL-34 [7] were 7.9e+06 M⁻¹ s⁻¹ and 8.4e+06 M⁻¹ s⁻¹, respectively. For the same molecule, the IC50 with human IL-34 [3] was found to be 154 pM; with cynomolgus monkey IL-34 [8] it was 644 pM. For the same molecule, the Kd came out at 40.9 pM with cynomolgus monkey IL-34 [4] and 31.2 pM with human IL-34 [6]. Further, the results for the koff with cynomolgus monkey IL-34 [5] and with human IL-34 [9] were 0.0003 s⁻¹ and 0.00026 s⁻¹, respectively.
